Laboratory results as given in patent publication US7282556B2, “Polynucleotides and polypeptides relating to the modulation of SIRPα-CD47” (Emory University, priority 2001, dated 2007).

Molecular target: T1, CD47-SIRPα1 binding (CD47-AP / SIRPα1-GST) (Homo sapiens, UniProt P78324)
T1 construct: Microtiter plates were coated with SIRPα1 extracellular domain fusion protein (SIRPα1-GST, 1 μg/ml) for 2 hr; A construct consisting of the extracellular domain of human CD47 fused to the catalytic domain of human placental AP; made in house
Experiment: CD47-AP binding to immobilized SIRPα1-GST (alkaline phosphatase activity)
Settings: SIRPα-GST coated 2 μg/ml, CD47-AP 1-2 μg/ml
Method: FIG. 2C (right panel) is a bar graph that illustrates CD47-AP specifically binds to SIRPα-GST fusion protein but not SIRPβ-GST. In this panel, microtiter plates were coated with either SIRPα-GST or highly similar SIRPβ-GST (10 μg/ml) followed by blocking with BSA. To each well was then added recombinant CD47-AP followed by washing. Bound CD47-AP was then detected by assay for alkaline phosphatase after addition of appropriate substrate.
FIGS. 6A-6C are graphs that illustrate the effects of synthetic peptides on CD47-SIRPα binding. FIG. 6A illustrates the effect of peptide C5/D5.1 on CD47-SIRPα binding. […] After blocking, CD47-AP was added in the absence or presence of synthetic peptides C5/D5.1 and control peptides C5/D5.4, C5/D5.11 and C5/D5.12 (used as 1 mM each). “*” p<0.01. CD47-AP binding was then detected by assay of alkaline phosphatase activity and normalized with respect to binding in the absence of any peptide (CD47-AP only). FIG. 6B illustrates the effect of dose-dependent inhibition of CD47-SIRPα1 binding by peptide C5/D5.1 performed as in FIG. 6A but with increasing concentrations of peptide as indicated. […] Binding of these proteins were detected by a goat anti-GST antibody followed by peroxidase conjugated anti-goat secondary (for detecting SIRPα1-GST) or directly developed for alkaline phosphatase activity (for detecting CD47-AP). […]

T1 sequence (P78324 31-373 limits assumed): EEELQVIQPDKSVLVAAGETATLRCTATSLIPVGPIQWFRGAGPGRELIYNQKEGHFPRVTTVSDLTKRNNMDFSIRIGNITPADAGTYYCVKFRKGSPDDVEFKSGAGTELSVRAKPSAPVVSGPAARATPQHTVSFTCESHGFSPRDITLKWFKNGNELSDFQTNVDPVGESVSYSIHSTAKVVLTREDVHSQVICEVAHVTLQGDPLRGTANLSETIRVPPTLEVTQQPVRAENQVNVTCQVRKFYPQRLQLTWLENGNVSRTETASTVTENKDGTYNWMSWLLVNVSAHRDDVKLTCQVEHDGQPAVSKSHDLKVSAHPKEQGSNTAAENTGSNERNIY

B1: JAM-AP: control AP fusion protein containing the extracellular domain of junction adhesion molecule (protein)
chain: SVTVHSSEPEVRIPENNPVKLSCAYSGFSSPRVEWKFDQGDTTRLVCYNNKITASYEDRVTFLPTGITFKSVTREDTGTYTCMVSEEGGNSYGEVKVKLIVLVPPSKPTVNIPSSATIGNRAVLTCSEQDGSPPSEYTWFKDGIVMPTNPKSTRAFSNSSYVLNPTTGELVFDPLSASDTGEYSCEARNGYGTPMTSNAVRMEAVERNVGV
modifications: left off: large carriers
notes: control AP fusion protein containing the extracellular domain of junction adhesion molecule
Question: With B1 as the molecule, how does the “binding of AP fusion protein to SIRPα-GST (AP activity, OD405)” value read?
Answer: Its value is “absence of binding”.
